Molecular target: recombinant Impβ (human, UniProt Q14974 1-876)
Test: pull-down

Chain of recombinant Impβ (Q14974 whole entry): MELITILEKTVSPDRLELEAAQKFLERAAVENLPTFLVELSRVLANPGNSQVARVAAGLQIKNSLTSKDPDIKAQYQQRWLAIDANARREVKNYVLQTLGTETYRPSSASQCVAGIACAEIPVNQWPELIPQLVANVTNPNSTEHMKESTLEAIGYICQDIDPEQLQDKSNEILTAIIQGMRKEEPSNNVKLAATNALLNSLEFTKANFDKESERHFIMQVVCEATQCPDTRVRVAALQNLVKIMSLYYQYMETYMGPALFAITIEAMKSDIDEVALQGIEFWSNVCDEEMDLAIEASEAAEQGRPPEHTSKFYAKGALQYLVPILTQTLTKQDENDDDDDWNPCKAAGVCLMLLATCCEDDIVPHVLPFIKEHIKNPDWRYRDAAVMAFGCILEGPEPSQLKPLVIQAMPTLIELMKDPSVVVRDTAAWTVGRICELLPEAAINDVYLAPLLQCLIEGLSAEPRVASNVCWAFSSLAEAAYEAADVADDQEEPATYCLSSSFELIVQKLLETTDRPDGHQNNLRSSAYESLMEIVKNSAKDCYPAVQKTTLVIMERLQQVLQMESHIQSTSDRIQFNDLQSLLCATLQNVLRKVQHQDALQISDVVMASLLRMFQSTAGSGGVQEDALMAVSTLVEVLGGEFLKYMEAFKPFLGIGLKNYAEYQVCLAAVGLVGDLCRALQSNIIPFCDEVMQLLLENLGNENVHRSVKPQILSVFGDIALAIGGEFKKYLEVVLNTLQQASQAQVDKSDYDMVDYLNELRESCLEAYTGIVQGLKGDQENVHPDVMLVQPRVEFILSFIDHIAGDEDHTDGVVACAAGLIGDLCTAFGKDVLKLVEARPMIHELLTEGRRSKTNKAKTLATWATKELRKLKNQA

B1: IBB peptide (peptide)
peptide: not shown
binding result: binds

— paper PMC2964165 (The EMBO Journal, 2010)
